Laboratory results: patent publication US20030167487A1 (Takeda / Millennium, published 2003)

B1: mouse GP Ib on platelets (receptor)
chain 1: QHTCSISKVTSLLEVNCENKKLTALPADLPADTGILHLGENQLGTFSTASLVHFTHLTYLYLDRCELTSLQTNGKLIKLENLDLSHNNLKSLPSLGWALPALTTLDVSFNKLGSLSPGVLDGLSQLQELYLQNNDLKSLPPGLLLPTTKLKKLNLANNKLRELPSGLLDGLEDLDTLYLQRNWLRTIPKGFFGTLLLPFVFLHANSWYCDCEILYFRHWLQENANNVYLWKQGVDVKDTTPNVASVRCANLDNAPVYSYPGKGCPTSSGDTDYDDYDDIPDVPATRTEVKFSTNTKVHTTHWSLLAAAPSTSQDSQMISLPPTHKPTKKQSTFIHTQSPGFTTLPETMESNPTFYSLKLNTVLIPSPTTLEPTSTQATPEPNIQPMLTTSTLTTPEHSTTPVPTTTILTTPEHSTIPVPTTAILTTPKPSTIPVPTTATLTTLEPSTTPVPTTATLTTPEPSTTLVPTTATLTTPEHSTTPVPTTATLTTPEHSTTPVPTTATLTTPEPSTTLTNLVSTISPVLTTTLTTPESTPIETILEQFFTTELTLLPTLESTTTIIPEQNSFLNLPEVALVSSDTSESSPFLNSDFCCFLPLGFYVLGLLWLLFASVVLILLLTWTWHVTPHSLDMEQSAALATSTHTTSLEVQRARQVTMPRAWLLFLQGSLPTFRSSLFLWVRPNGRVGPLVAGRRPSALSQGRGQDLLGTVGIRYSGHSL
chain 2: PAPCSCAGTLVDCGRRGLTWASLPAAFPPDTTELVLTGNNLTALPPGLLDALPALRAAHLGANPWRCDCRLLPLRAWLAGRPERAPYRDLRCVAPPALRGRLLPYVAEDELRAACAPGLLCWGALVAQLALLVLGLLHALLLALLLGRLRRLRARARARSIQEFSLTAPLVAESARGGAS
notes: whole, on cells; Native receptor on mouse platelets of GP V wt, +/- and -/- genotype, present there in complex with GP IX (and with GP V in wt); also called GP Ib-IX (complex on platelets)
B2: mouse αIIbβ3 on platelets (receptor)
chain 1: LNLDSEKFSVYAGPNGSHFGFSVDFHKDKHGSVSIVVGAPRALNASQEETGAVFLCPWKANGGKCNPLLFDLRDETRNLGFQIFQTFKTGQGLGASVVSWNDVIVACAPWQHWNVLEKRDEAEKTPVGGCFLAQLQSGGRAEYSPCRANTMSSVYAESFRGDKRYCEAGFSLAVTQAGELVLGAPGGYFFLGLLARVPIENIISSYRPGTLLWHVSNQRFTYDNSNPVFFDGYRGYSVAVGEFDGDPSTTEYVSGAPTWSWTLGAVEILDSYYQPLHRLHGEQMASYFGHSVAVTDVNGDGRHDLLVGAPLYMESRADRKLAEVGRVYLFLQPKGPQALSTPTLLLTGTQLYGRFGSAIAPLGDLNRDGYNDIAVAAPYGGPSGQGQVLIFLGQSEGLSPRPSQVLDSPFPTGSGFGFSLRGAVDIDDNGYPDLIVGAYGASKVAVYRAQPVVMATVQLMVQDSLNPTLKNCVLDQTKTPVSCFNIQMCVGATGHNIPQKLHLKAELQLDLQKPRQGRRVLLLASQQASLTLSLDLGGRDKPICHTTGAFLRDEADFRDKLSPIVLSLNVSLPPEETGGAPAVVLHGETHVQEQTRIILDCGEDDLCVPQLRLTATAGDSPLLIGADNVLELKIEAANDGEGAYEAELAVHLPPGAHYMRALSNIEGFERLVCTQKKENESRVALCELGNPMKKDTRIGITMLVSVENLEEAGESVSFQLQVRSKNSQNPNSKVVMLPVAIQAEATVELRGNSFPASLVVAAEEGDREQEDLDRWVSRLEHTYELHNIGPGTVNGLRLLIHIPGQSQPSDLLYILDVQPQGGLLCSTQPSPKVDWKLSTPSPSSIRPVHHQRERRQAFLQGPKPGQQDPVLVSCDGSASCTVVECELREMVRGQRAMVTVQVMLGLSSLRQRPQEQFVLQSHAWFNVSSLPYSVPVVSLPSGQARVQTQLLRALEERAIPVWWVLVGVLGGLLLLTLLVLAMWKAGFFKRNRPPLEEDEEEE
chain 2: ESNICTTRGVNSCQQCLAVSPVCAWCSDETLSQGSPRCNLKENLLKDNCAPESIEFPVSEAQILEARPLSSKGSGSSAQITQVSPQRIALRLRPDDSKIFSLQVRQVEDYPVDIYYLMDLSFSMKDDLSSIQTLGTKLASQMRKLTSNLRIGFGAFVDKPVSPYMYISPPQAIKNPCYNMKNACLPMFGYKHVLTLTDQVSRFNEEVKKQSVSRNRDAPEGGFDAIMQATVCDEKIGWRNDASHLLVFTTDAKTHIALDGRLAGIVLPNDGHCHIGTDNHYSASTTMDYPSLGLMTEKLSQKNINLIFAVTENVVSLYQNYSELIPGTTVGVLSDDSSNVLQLIVDAYGKIRSKVELEVRDLPEELSLSFNATCLNNEVIPGLKSCVGLKIGDTVSFSIEAKVRGCPQEKEQSFTIKPVGFKDSLTVQVTFDCDCACQAFAQPSSPRCNNGNGTFECGVCRCDQGWLGSMCECSEEDYRPSQQEECSPKEGQPICSQRGECLCGQCVCHSSDFGKITGKYCECDDFSCVRYKGEMCSGHGQCNCGDCVCDSDWTGYYCNCTTRTDTCMSTNGLLCSGRGNCECGSCVCVQPGSYGDTCEKCPTCPDACSFKKECVECKKFNRGTLHEENTCSRYCRDDIEQVKELTDTGKNAVNCTYKNEDDCVVRFQYYEDTSGRAVLYVVEEPECPKGPDILVVLLSVMGAILLIGLATLLIWKLLITIHDRKEFAKFEEERARAKWDTANNPLYKEATSTFTNITYRGT
notes: whole, on cells; Native receptor on washed mouse platelets of GP V wt, +/- and -/- genotype; also called mouse fibrinogen receptor; GPIIb-IIIa

Experiments:
human vWf [1] = biological target: T1, human vWf (human, UniProt P04275 764-2813); test: platelet adhesion to vWf-coated 96-well plates (25-500 ng/well) with botrocetin 4 µM; bound platelets read by acid phosphatase activity
T1 construct: Plasma-type multimeric protein; It was coated on plates (25-500 ng/well) in the adhesion assay and FITC-labeled (F/P ratio 1-4) in the flow cytometry assay; also called FITC˜vWf
Experimental: 96-well plates were coated with various concentrations (25-500 ng/well) of human vWf overnight at 4° C. Pooled WP from mice were resuspended in Mg²⁺-free CFTH buffer (1.2×10⁸/mL) containing botrocetin (4 μM), and incubated immobilized human vWf for 1 hour at room temp. Following two PBS washes, bound platelets were lysed and intracellular acid phosphatase activity was quantitated calorimetrically using the substrate pNPP (Sigma).

human vWf [2] = biological target: T1, human vWf; test: flow cytometry, FITC-vWf on mouse platelets in PRP stimulated with ADP and epinephrine (no botrocetin)

Binder | binding result (human vWf [1]) | binding result (human vWf [2])
B1 | binds | 
B2 |  | no binding
